# Laboratory results: the supplement of paper PMC9170038
# Tested on: MS2 coat protein
# Experiment: apparent KD of MS2 coat protein; higher = weaker reporter binding
# Conditions: Eterna round: R107
# Method in brief: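 Illumina sequencing clusters served as templates for on-chip transcription of the designed RNA switches. SNAP-549-labelled MS2 coat protein was then titrated in twofold steps from 0.7 or 1.5 nM to 3 µM, allowing 0.8–1.5 h per step at first and 10–20 min per step later. The buffer held 100 mM Tris-HCl pH 7.5, 80 mM KCl and 4 mM MgCl2, without or with constant ligand. Apparent KD is the median per design of normalised cluster binding-curve fits.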
# [1] = input ligand: theophylline 20 uM
# [2] = input ligand: tryptophan 2.4 mM
# [3] = input ligand: theophylline 2 mM
Sequence,apparent KD of MS2 coat protein (input ligand: arginine 13.2 mM) [nM],apparent KD of MS2 coat protein [1] [nM],apparent KD of MS2 coat protein [2] [nM],apparent KD of MS2 coat protein [3] [nM],apparent KD of MS2 coat protein (input ligand: none) [nM]
UGUAUGUGAUUUGAUACCAGAUCAGCUGGUUAUACAUGAGGAUCACCCAUGUUACUUUGGGUCCCUUGGCAGCAAAUCGCAUACU [SSTheo B #26],165,355,535,,
UGUCACUGUUUGGUUCAAUGAAGAAGAAUUCGAGGACCGGUACGGCCGCCACUCGCUAUGCAACAUGAGGAUCACCCAUGUAAAA [theeternabot_exclusion_MS2_Trp_A_31],13.4,17,,17.3,
UGUCAGCGAAAGUUGACAUGUCUUACCGGUCGAGGACCGGUACGGCCGCCACUCGAUCACUCGCACAUGAGGAUCACCCAUGUUG [SS Tryp A #21],21.1,24.6,,23.8,
UGUCCGUGAUCGGCCGCCACUCAACAAACCUGUGGAAACUGACAUGAGGAUCACCCAUGUUCUUGGAGGACCGGGAUUGCUUCGA [theeternabot_sameState_MS2_Trp_B_4],16.7,19.7,,18.5,
UGUCGAAACUGAAGGAGCGAGAUGACAACAUUGGGUCUAACAUGAGGAUCACCCAUGUAAUCUCAGGUAGGUCGCAGUGACAAAA [Exclusion Arginine B GF 15],64.5,123,121,133,94.7
UGUGGGCGCACGGCCGCCACUGUCUUCAUCUGUUUGUCUACAUGAGGAUCACCCAUGUUGGUUUACAGGACCGGGUGCAUCUAUG [SSTryp B #12],39.5,80.8,,52.1,
UGUGGGUCCGAAGAUACCAGCCAGCACAGCAUGUGUUUAAACAUGAGGAUCACCCAUGUCGGCCCUUGGCAGCUUGGUUUGGACG [theeternabot_exclusion_MS2_Theo_B_7],15.5,19.8,15.8,,
UGUUUGGUGCGCGAGUGUUGGAUAAAUGAUACCAGUGUAGAUGUACGCCCUUGGCAGCGUAUCCGAACAUGAGGAUCACCCAUGU [5.aB],26.7,44.9,36.3,,
UGUUUGGUGCGCGAGUGUUGGAUAAUUGAUACCAGUGUAGAUGUACGCCCUUGGCAGCGAAUCCGAACAUGAGGAUCACCCAUGU [5.aA],36.7,45.6,30.2,,
UGUUUUGUGGGAAGGAGCGCAUACUUCACAUGAGGAUCACCCAUGUCAAGACGUGAGUCAGUGCAGGUAGGUCGCCUAGUUAAGA [Same State - Arginine B (Freestyle 16)],52.8,59,49.3,61.9,70.4
UUAAAGGCACCUCAUGGGACUAUAAACCCGCGAGGACCGGUACGGCCGCCACUCGAAUAUCAACAUGAGGAUCACCCAUGUGGUU [theeternabot_exclusion_MS2_Trp_A_6],16.2,32.3,,29.6,
UUAAAUGUGACGGAUACCAGCGUGUUGUAGAACAUGAGGAUCACCCAUGUAGUGAUCAUGCGCCCUUGGCAGCUGGUAUGUUUGA [7.aA],189,543,480,,
UUAAGAGGAUAUCAAAUUUGAUUUUGUGAUACCAGAAUAAUUUUAUUCCCUUGGCAGCAUGACAUGAGGAUCACCCAUGUGUCUU [SSTheo A #1],37.3,44.3,30.9,,
UUAAUCAUAUAUGAAAACAUAUAUGCAGAAGGAGCGUGAUAAAACACAGGUAGGUCGCUGAAGGGAACAUGAGGAUCACCCAUGU [AstrosSSArgA#2],47.4,49,32.4,31.5,24.8
UUAAUCAUUAUAGAAAACUAUAAUGCAGAAGGAGCGUGAUAAAACACAGGUAGGUCGCUGAAGGGAACAUGAGGAUCACCCAUGU [AstrosSSArgA#6],21.3,37.8,28.8,39.4,30.3
UUACAUGAGGAUCACCCAUGUCAUACAGAAGGAGCGUCACAUAAGACAGGUAGGUCGCUGUUAUAUCAUACUAUUAUAUCCUCUA [JR_Nu_ExcArginiA_Sub028],22,53.5,33,38.2,40.4
UUACAUGAGGAUCACCCAUGUCAUACAGAAGGAGCGUCACAUAAGACAGGUAGGUCGCUGUUAUUUUUUACUAUUAUAUCCUCUA [JR_Nu_ExcArginiA_Sub030],25,45.8,25.9,31.7,30.8
UUAUAAGCACCUGAUACCAGUAUGAACCCGUACAUGAGGAUCACCCAUGUUAAUUUCUAUUACCCUUGGCAGCAGCCUUUUUCCU [theeternabot_sameState_MS2_Theo_B_2],18.7,28.8,21.7,,
UUAUAAGUACCGGUCCUCAGAUCCUCAUGACGAGGACCGGUACGGCCGCCACUCGAAACAUGAGGAUCACCCAUGUAAUAACAUC [Brourdmod21],19,27.5,,25.9,
UUAUGCAGGUCGGCCGCCACUACACACAUGAGGAUCACCCAUGUAGUUACUGGGUGAAGUGGCAGUAGGACCGGGACCCGCACAU [Brourdmod21],151,388,383,612,367

Sequence,apparent KD of MS2 coat protein (input ligand: arginine 13.2 mM) [nM],apparent KD of MS2 coat protein [1] [nM],apparent KD of MS2 coat protein [2] [nM],apparent KD of MS2 coat protein [3] [nM],apparent KD of MS2 coat protein (input ligand: none) [nM]
UUAUUUAUAAUUGAUACCAGUUUAAUGGCCGCAAAUCCUGACAUGAGGAUCACCCAUGUAAGCCCUUGGCAGCGGUUAUGGGUUU [XTheo B #25],22.8,26.4,22.1,,
UUAUUUAUAGGCGAUACCAGCCGAAUGGCCGCAAAUCCUAACAUGAGGAUCACCCAUGUCGGCCCUUGGCAGCGCCUAUGGGUUU [XTheo B #27],114,255,93.3,480,94.7
UUCAAAGGGAACGGUGCUGGUGACAGAGAUACCAGAGUAGUAAUACUCCCUUGGCAGCUCAGAACAUGAGGAUCACCCAUGUAAU [Exclusion Theophylline A GF22],18.5,29.1,17.6,59.2,18
UUCACGGGCACGGCCGCCACUAACCAACAUGAGGAUCACCCAUGUGUAUUGGACGACCUCUUUGCUAGGACCGGGUGUAUGGUUC [theeternabot_exclusion_MS2_Trp_B_15],25.3,32.3,,32.6,
UUCAGCUAGUCGGCCGCCACUACAAGAGGAUCACCCUUGUAAUCCUAACACUGCUUCGGCAGUGGUAGGACCGGGACUAGCUGAG,15.1,17.3,20.1,13.8,14.4
UUCAGCUAGUCGGCCGCCACUACAAGAGGAUCACCCUUGUAGGUCCACACUGCUUCGGCAGUGAGUAGGACCGGGACUAGCUGAG,10.9,13.1,17.7,13.7,11.3
UUCAGCUAGUCGGCCGCCACUACACGAGGAUCACCCGUGUUCCUAAAACACUGCUUCGGCAGUGGUAGGACCGGGACUAGCUGAG,27.7,33,123,36.7,27.9
UUCGCUGAGGGAAGGAGCGUGAAGACAUGAGGAUCACCCAUGUAGAGGCGCCGAAGGCGUUCGCAGGUAGGUCGCCCUCAGUGAG [#1 Same State - Arginine B Attempt #23 (HarryS)],17.1,24.7,17.3,17.7,16.4
UUCGUAUUGUCGGCCGCCACUGCAACAUGAGGAUCACCCAUGUAAGAAUGGUUGUAAAUAUAUUACAGGACCGGGACAAUAGUAA [JR_ExcTryptoB_Sub018],16,24.1,,23.4,
UUCGUUUGCGGAAGGAGCGACGGACAUCGGUGACCCACGCACAUGAGGAUCACCCAUGUACGUCAGGUAGGUCGCCGCUAAGAGU [XArg-B4],20.3,47.4,12.4,41.3,17.4
UUCUACAUGAGGAUCACCCAUGUGGGUGAUACCAGCACUUUUUGGUGCCCUUGGCAGCACAUGAGAAUACCGUACGAUCGGCGAU [Arainbi],122,500,609,,
UUGACAUGAGGAUCACCCAUGUAAACUGAAGGAGCGUCGAAAAUGACAGGUAGGUCGCAGAAUAAUAAAGGUGAUGGUAAAUAUU [Exclusion Arginine AGF1],21.4,34.5,29.3,29.6,22.3
UUGGAUAUGCGAAGGAGCGGGAAAUAUAUAUAUAUAAUCCUAACAUGAGGAUCACCCAUGUCCCAGGUAGGUCGCGCAUAUUUGG [12.H],48.1,69.3,49.9,70.7,51.7
UUGGGUUUGUGAAGGAGCGGGAAAGUUUUAUAGUGGAUCCUAACAUGAGGAUCACCCAUGUCCCAGGUAGGUCGCGCGGGUUUGG [12.R],60.7,182,107,152,182
UUGUAUAUGCGAAGGAGCGGGAAAUAUAUAUAUAUAAUCCUAACAUGAGGAUCACCCAUGUCCCAGGUAGGUCGCGCAUAUGUGG [12.G],34.6,65.6,54.9,68.3,58.8
UUUAAAUAGACGGCCGCCACUGGAAUUAAUACAUGAGGAUCACCCAUGUAGAGAGAAUAAUAAUACAGGACCGGGUCUUCAUGAA [SS Tryp B Tesla 1],27.2,22.1,,38.9,
UUUACAUGAGGAUCACCCAUGUGCCAUGAUACCAGACAUGAAAAUGUCCCUUGGCAGCAUGAAUAAUCCUCGUCGGGAAACCGAC [Lisen],110,195,70.8,,
UUUACAUGAGGAUCACCCAUGUGCCAUGAUACCAGACAUGAAAAUGUCCCUUGGCAGCAUGAGUGAAGCGUCGGGAAACCGACGC [Kninicky],57.1,229,261,297,249
UUUACAUGAGGAUCACCCAUGUGCCAUGAUACCAGACAUGAAAAUGUCCCUUGGCAGCAUGGGUGUAGCGUCGGGAAACCGACGC [Kohoutovice],97.5,545,14,909,35
